The record followed here is patent publication US20020128201A1 (GREEN PEPTIDE, published 2002).

T1: HLA-A2402 (human, UniProt P04439-2 25-302 at identity 0.92))
T1 MHC heavy: not shown

The assay addresses T1, HLA-A2402. The assay can be described thus: cell-based or functional assay.
HYTNASDGL [Lck208-216]: the “lowest peptide concentration at which enhancement of IFN-γ production by KE4-CTLs was detected (peptide-pulsed ClR/A2402 cells)” value was no less than 100 nM.
Regarding DYLRSVLEDF [Lck488-497], the “lowest peptide concentration at which enhancement of IFN-γ production by KE4-CTLs was detected (peptide-pulsed ClR/A2402 cells)” value is roughly 1 nM.
For TFDYLRSVL [Lck486-494] the value was roughly 1 nM.
